Laboratory results as given in US11833164B2, “Methods of treating Fabry disease in patients having a mutation in the GLA gene” (Amicus Therapeutics, Inc., priority 2019, dated 2023).
Changes are numbered by the printed parent chain. In names and notes the source's numbering stands.

Tested on: mutant form of α-Gal A expressed in HEK-293 cells
Assay: HEK assay (GLP HEK / Migalastat Amenability Assay): α-Gal A activity in lysates of transiently transfected HEK-293 cells incubated with or without 10 μM migalastat
Assay type: cell-based, human
Settings: for Absolute increase (% WT): 10 μM migalastat versus baseline; for Relative increase: 10 μM migalastat α-Gal A activity relative to baseline; for 10 μM migalastat α-Gal A activity (% WT): 5 days; for 10 μM migalastat α-Gal A activity (% WT) / Baseline α-Gal A activity (% WT): percentage of baseline wild-type α-Gal A activity; for 10 μM migalastat α-Gal A activity (% WT) / Baseline α-Gal A activity (% WT) / Baseline α-Gal A activity / 10 μM migalastat α-Gal A activity: mean ± SEM; for Baseline α-Gal A activity (% WT): absence of migalastat; for Baseline α-Gal A activity / 10 μM migalastat α-Gal A activity: lysates of HEK-293 cells transfected with the mutant form; for Baseline α-Gal A activity: incubated 5 days in the absence of migalastat; for 10 μM migalastat α-Gal A activity: incubated 5 days with 10 μM migalastat
Procedure: Such mutations or variants are also referred to herein as “HEK assay amenable” mutations or variants.
The α-Gal A activity is expressed as the nmoles of free 4-MU released per milligram of protein per hour (nmol/mg/hr).
In Table 7, values for the mean±standard error of the mean (SEM) were calculated. nmol/mg/hr indicates “nmoles of free 4-MU released per mg of protein per hour”. WT indicates “wild-type”. NC indicates “not calculable”. N/A indicates “not applicable”.

B1: A121V (protein)
chain: MQLRNPELHLGCALALRFLALVSWDIPGARALDNGLARTPTMGWLHWERFMCNLDCQEEPDSCISEKLFMEMAELMVSEGWKDAGYEYLCIDDCWMAPQRDSEGRLQADPQRFPHGIRQLVNYVHSKGLKLGIYADVGNKTCAGFPGSFGYYDIDAQTFADWGVDLLKFDGCYCDSLENLADGYKHMSLALNRTGRSIVYSCEWPLYMWPFQKPNYTEIRQYCNHWRNFADIDDSWKSIKSILDWTSFNQERIVDVAGPGGWNDPDMLVIGNFGLSWNQQVTQMALWAIMAAPLFMSNDLRHISPQAKALLQDKDVIAINQDPLGKQGYQLRQGDNFEVWERPLSGLAWAVAMINRQEIGGPRSYTIAVASLGKGVACNPACFITQLLPVKRKLGFYEWTSRLRSHINPTGTVLLQLENTMQMSLKDLL
  Absolute increase (% WT): 56.7 % WT
  Relative increase: 3.7
  10 μM migalastat α-Gal A activity (% WT): 78.2 ± 4.2 % WT
  Baseline α-Gal A activity (% WT): 21.5 ± 1.2 % WT
  Baseline α-Gal A activity: 7301 ± 253 nmol/mg/h
  10 μM migalastat α-Gal A activity: 26639 ± 1124 nmol/mg/h

B2: K127E (protein)
chain: B1 chain with V121A, K127E
  Absolute increase (% WT): 6.4 % WT
  Relative increase: 1.2
  10 μM migalastat α-Gal A activity (% WT): 32.2 ± 2.3 % WT
  Baseline α-Gal A activity (% WT): 25.8 ± 1.1 % WT
  Baseline α-Gal A activity: 8968 ± 519 nmol/mg/h
  10 μM migalastat α-Gal A activity: 11003 ± 768 nmol/mg/h

B3: H125N (protein)
chain: B1 chain with V121A, H125N
  Absolute increase (% WT): 14.9 % WT
  Relative increase: 1.4
  10 μM migalastat α-Gal A activity (% WT): 48.4 ± 2.7 % WT
  Baseline α-Gal A activity (% WT): 33.5 ± 1.8 % WT
  Baseline α-Gal A activity: 14162 ± 994 nmol/mg/h
  10 μM migalastat α-Gal A activity: 20228 ± 1240 nmol/mg/h

B4: Y123F (protein)
chain: B1 chain with V121A, Y123F
  Absolute increase (% WT): 33.8 % WT
  Relative increase: 1.5
  10 μM migalastat α-Gal A activity (% WT): 97.4 ± 3.4 % WT
  Baseline α-Gal A activity (% WT): 63.6 ± 3.3 % WT
  Baseline α-Gal A activity: 22066 ± 1408 nmol/mg/h
  10 μM migalastat α-Gal A activity: 33544 ± 1384 nmol/mg/h

B5: K130Q (protein)
chain: B1 chain with V121A, K130Q
  Absolute increase (% WT): 12.0 % WT
  Relative increase: 1.4
  10 μM migalastat α-Gal A activity (% WT): 47.8 ± 3.1 % WT
  Baseline α-Gal A activity (% WT): 35.8 ± 2.6 % WT
  Baseline α-Gal A activity: 11880 ± 450 nmol/mg/h
  10 μM migalastat α-Gal A activity: 16001 ± 701 nmol/mg/h

B6: I133V (protein)
chain: B1 chain with V121A, I133V
  Absolute increase (% WT): 21.9 % WT
  Relative increase: 1.2
  10 μM migalastat α-Gal A activity (% WT): 118.1 ± 5.1 % WT
  Baseline α-Gal A activity (% WT): 96.2 ± 3.7 % WT
  Baseline α-Gal A activity: 38738 ± 1624 nmol/mg/h
  10 μM migalastat α-Gal A activity: 47299 ± 1885 nmol/mg/h

B7: Y123N (protein)
chain: B1 chain with V121A, Y123N
  Absolute increase (% WT): 19.7 % WT
  Relative increase: 1.5
  10 μM migalastat α-Gal A activity (% WT): 60.6 ± 4.1 % WT
  Baseline α-Gal A activity (% WT): 40.9 ± 3.2 % WT
  Baseline α-Gal A activity: 13817 ± 816 nmol/mg/h
  10 μM migalastat α-Gal A activity: 20466 ± 846 nmol/mg/h

B8: G128A (protein)
chain: B1 chain with V121A, G128A
  Absolute increase (% WT): 5.1 % WT
  Relative increase: 1.2
  10 μM migalastat α-Gal A activity (% WT): 25.9 ± 2.3 % WT
  Baseline α-Gal A activity (% WT): 20.8 ± 2 % WT
  Baseline α-Gal A activity: 8484 ± 872 nmol/mg/h
  10 μM migalastat α-Gal A activity: 10204 ± 703 nmol/mg/h

B9: L131V (protein)
chain: B1 chain with V121A, L131V
  Absolute increase (% WT): 12.7 % WT
  Relative increase: 1.3
  10 μM migalastat α-Gal A activity (% WT): 53.2 ± 5.3 % WT
  Baseline α-Gal A activity (% WT): 40.5 ± 2.8 % WT
  Baseline α-Gal A activity: 18644 ± 1664 nmol/mg/h
  10 μM migalastat α-Gal A activity: 24913 ± 3151 nmol/mg/h

B10: K130N (protein)
chain: B1 chain with V121A, K130N
  Absolute increase (% WT): 10.1 % WT
  Relative increase: 1.5
  10 μM migalastat α-Gal A activity (% WT): 31.5 ± 3 % WT
  Baseline α-Gal A activity (% WT): 21.5 ± 1.9 % WT
  Baseline α-Gal A activity: 8597 ± 678 nmol/mg/h
  10 μM migalastat α-Gal A activity: 12595 ± 989 nmol/mg/h

B11: I133T (protein)
chain: B1 chain with V121A, I133T
  Absolute increase (% WT): 15.0 % WT
  Relative increase: 2.4
  10 μM migalastat α-Gal A activity (% WT): 25.8 ± 1.1 % WT
  Baseline α-Gal A activity (% WT): 10.8 ± 1 % WT
  Baseline α-Gal A activity: 4362 ± 397 nmol/mg/h
  10 μM migalastat α-Gal A activity: 10255 ± 335 nmol/mg/h

B12: I133L (protein)
chain: B1 chain with V121A, I133L
  Absolute increase (% WT): 17.5 % WT
  Relative increase: 1.3
  10 μM migalastat α-Gal A activity (% WT): 78.2 ± 3.1 % WT
  Baseline α-Gal A activity (% WT): 60.7 ± 2.7 % WT
  Baseline α-Gal A activity: 24431 ± 1181 nmol/mg/h
  10 μM migalastat α-Gal A activity: 31550 ± 1420 nmol/mg/h

B13: H125R (protein)
chain: B1 chain with V121A, H125R
  Absolute increase (% WT): 23.0 % WT
  Relative increase: 1.6
  10 μM migalastat α-Gal A activity (% WT): 59.1 ± 1.9 % WT
  Baseline α-Gal A activity (% WT): 36 ± 1.2 % WT
  Baseline α-Gal A activity: 14738 ± 699 nmol/mg/h
  10 μM migalastat α-Gal A activity: 24004 ± 987 nmol/mg/h

B14: K130M (protein)
chain: B1 chain with V121A, K130M
  Absolute increase (% WT): 10.9 % WT
  Relative increase: 1.3
  10 μM migalastat α-Gal A activity (% WT): 41.4 ± 2.6 % WT
  Baseline α-Gal A activity (% WT): 30.5 ± 2.1 % WT
  Baseline α-Gal A activity: 12335 ± 890 nmol/mg/h
  10 μM migalastat α-Gal A activity: 16496 ± 921 nmol/mg/h

B15: Y123D (protein)
chain: B1 chain with V121A, Y123D
  Absolute increase (% WT): 10.2 % WT
  Relative increase: 1.2
  10 μM migalastat α-Gal A activity (% WT): 53.6 ± 2.7 % WT
  Baseline α-Gal A activity (% WT): 43.4 ± 1.6 % WT
  Baseline α-Gal A activity: 15093 ± 815 nmol/mg/h
  10 μM migalastat α-Gal A activity: 18723 ± 1237 nmol/mg/h

B16: S126C (protein)
chain: B1 chain with V121A, S126C
  Absolute increase (% WT): 7.5 % WT
  Relative increase: 1.4
  10 μM migalastat α-Gal A activity (% WT): 24.5 ± 1.5 % WT
  Baseline α-Gal A activity (% WT): 16.9 ± 1.1 % WT
  Baseline α-Gal A activity: 7046 ± 488 nmol/mg/h
  10 μM migalastat α-Gal A activity: 10050 ± 554 nmol/mg/h

B17: Y123S (protein)
chain: B1 chain with V121A, Y123S
  Absolute increase (% WT): 19.3 % WT
  Relative increase: 1.5
  10 μM migalastat α-Gal A activity (% WT): 61 ± 3.6 % WT
  Baseline α-Gal A activity (% WT): 41.7 ± 2.1 % WT
  Baseline α-Gal A activity: 14556 ± 986 nmol/mg/h
  10 μM migalastat α-Gal A activity: 21255 ± 1484 nmol/mg/h

B18: V124I (protein)
chain: B1 chain with V121A, V124I
  Absolute increase (% WT): 30.6 % WT
  Relative increase: 1.4
  10 μM migalastat α-Gal A activity (% WT): 111.3 ± 4.5 % WT
  Baseline α-Gal A activity (% WT): 80.7 ± 2 % WT
  Baseline α-Gal A activity: 32074 ± 1858 nmol/mg/h
  10 μM migalastat α-Gal A activity: 43288 ± 2179 nmol/mg/h

B19: L129V (protein)
chain: B1 chain with V121A, L129V
  Absolute increase (% WT): 16.4 % WT
  Relative increase: 1.5
  10 μM migalastat α-Gal A activity (% WT): 48.1 ± 4.5 % WT
  Baseline α-Gal A activity (% WT): 31.8 ± 3.3 % WT
  Baseline α-Gal A activity: 12614 ± 1265 nmol/mg/h
  10 μM migalastat α-Gal A activity: 19488 ± 1603 nmol/mg/h

B20: H125D (protein)
chain: B1 chain with V121A, H125D
  Absolute increase (% WT): 6.5 % WT
  Relative increase: 3.3
  10 μM migalastat α-Gal A activity (% WT): 8.8 ± 1.4 % WT
  Baseline α-Gal A activity (% WT): 2.3 ± 0.2 % WT
  Baseline α-Gal A activity: 995 ± 106 nmol/mg/h
  10 μM migalastat α-Gal A activity: 3282 ± 375 nmol/mg/h

B21: S126I (protein)
chain: B1 chain with V121A, S126I
  Absolute increase (% WT): 16.0 % WT
  Relative increase: 1.2
  10 μM migalastat α-Gal A activity (% WT): 85.9 ± 5.3 % WT
  Baseline α-Gal A activity (% WT): 69.8 ± 5.1 % WT
  Baseline α-Gal A activity: 28685 ± 1923 nmol/mg/h
  10 μM migalastat α-Gal A activity: 35340 ± 2027 nmol/mg/h
